# Assay results taken from patent US20190284262A1 (Memorial Sloan Kettering, published 2019).
# B1: (FoxP4)_#5 (scFv)
# scFv (VL-linker-VH-His/HA tag): QSVLTQPPSVSVAPGKTAKITCGGDNIGSKTVHWYQQKPGQAPALLIYYDSDRPSGIPERFSGSNSGNTATLSISRVEAGDEAGYFCQVWDGSSDHVIFGGGTKLTVLGSRGGGGSGGGGSGGGGSLEMAQMQLVQSGGGVVQPGRSLRLSCAASGFTFSSYAMHWVRQAPGKGLEWVAVISYDGSNKYYADSVKGRFTISRDNSKNTLYLQMNSLRAEDTAVYYCARDRHDYVMDVWGKGTTVTVSSTSGQAGQHHHHHHGAYPYDVPDYAS
# notes: also called EXT018-5; EXT018-05 scFv phage clone
# B2: (FoxP4)_#4 (scFv)
# scFv (VL-linker-VH-His/HA tag): QSVLTQPPSVSGAPGQRVTISCTGSNSNIGADFDVHWYQQLPGTAPKLLIYGNNNRPSGVPDRFSGSKSDTSASLAITGLQAEDEADYYCQSYDISLNGYVFGTGTKVTVLGSRGGGGSGGGGSGGGGSLEMAQVQLQQWGAGLLKPSETLSLTCAVSGGSFSDYYWSWIRQPPGKGLEWIGEITHTGSTNYNPSLKSRVTISVDTSKNHFSLNLTSVTAADTAVYYCARSNGFYYDTWGQGTLVTVSSTSGQAGQHHHHHHGAYPYDVPDYAS
# notes: also called EXT018-4; EXT018-04 scFv phage clone
# B3: (FoxP4)_#2 (scFv)
# scFv (VL-linker-VH-His/HA tag): QSVVTQPPSVSGAPGQRVTISCTGSSSNIGAGFDVHWYQQLPGTAPKLLIYGNSNRPSGVPDRFSGSKSATSASLAITGLQAEDEADYYCQSYDSSLSGVVFGGGTKLTVLGSRGGGGSGGGGSGGGGSLEMAQVQLVQSGAEVKKPGSSVKVSCKTSGGTFSSYAISWVRQAPGQGLEWMGGIIPIFGTANYAQRFQGRVTITADESTNTVYMELSSLRSEDTAVYYCARESWYLDEWGQGTLVTVSSTSGQAGQHHHHHHGAYPYDVPDYAS
# notes: also called EXT018-2; EXT018-02 scFv phage clone
# B4: EXT017-32 mouse IgG1 (antibody, V domains shown)
# VH: EVQLVESGGGVVQPGRSLRLSCAASGFTFNNHAMHWVRQAPGKGLEWVAVISFDGDDKFYADSVKGRFTISRDNSRNTLFLQMNNLRPEDTAVYYCSRDPYHFASGSYSYFDYWGQGTLVTVSS
# VL: QSVLTQPPSVSVAPGKTARITCGGNNIGSKSVHWYQQKPGQAPVLVIYYDSDRPSGIPERFSGSNSGNTATLTISRVEAGDEADYYCQVWDSSSDHYVFGTGTKVTVLG
# notes: Mouse IgG1 format of clone #32 made by Eureka Therapeutics; conjugated to APC for flow cytometry of Tregs; also called EXT017-32 mIgG; EXT017-32 mIgG1
# B5: EXT017-32 human IgG1 (antibody, V domains shown)
# VH: B4 VH
# VL: B4 VL
# notes: Full-length human IgG1 with matching human lambda or kappa light chain constant region; Fc-enhanced (afucosylated); also called EXT017-32 hIgG; EXT017-32-hIgG1
# Tests used:
# [1] = target: T1, HLA-A*02:01 on T2 cells alone (no peptide added) (human); assay: flow cytometry, phage on T2 without peptide
# T1 construct: TAP-deficient T2 cells without pulsed peptide; negative control target, and the HLA molecule whose stabilisation by peptides is read in the T2 stabilization assay; also called HLA-A*02 molecule; HLA-A2 molecule
# [2] = target: T1, HLA-A*02:01 on T2 cells alone (no …); assay: flow cytometry, phage on T2 without peptide; secondary only 125, unstained 99.8
# [3] = target: T2, R3 (RHAMM-R3) peptide/HLA-A*02:01 complex on T2 cells (human); assay: flow cytometry, phage on T2 + R3 peptide; secondary only 118, unstained 91.1
# T2 construct: Control target of the phage staining of T2 cells; also called T2 cells pulsed with R3 peptide; RHAMM 3 (R3)
# [4] = target: T3, EXT017 (Foxp3-7) peptide/HLA-A*02:01 complex, recombinant (human); assay: SPR
# T3 construct: The BLI and SPR paragraphs only say 'EXT017 peptide/HLA-A*02:01 complex'; also called EXT017 peptide/HLA-A*02:01 complex; biotinylated single chain Foxp3p/HLA-A0201 complex
# [5] = target: T3, EXT017 (Foxp3-7) peptide/HLA-A*02:01 …; assay: SPR; printed under the head 'ka [1/Ms]': the heads of c3 and c4 are evidently interchanged
# [6] = target: T3, EXT017 (Foxp3-7) peptide/HLA-A*02:01 …; assay: SPR; printed under the head 'kd [1/s]': the heads of c3 and c4 are evidently interchanged (0.005167/1.12E+07 = 0.46 nM)
# [7] = target: T3, EXT017 (Foxp3-7) peptide/HLA-A*02:01 …; assay: SPR; printed under the head 'kd [1/s]': the heads of c3 and c4 are evidently interchanged (0.01222/5.97E+07 = 0.205 nM)
Binder,binding result [1],Median:FITC-A [2],Median:FITC-A [3],Kd [4],koff [5],kon [6],kon [7]
B1,no binding,155,143,–,–,–,–
B2,no binding,155,148,–,–,–,–
B3,no binding,157,147,–,–,–,–
B4,–,–,–,0.462 nM,0.00517 s⁻¹,1.12e+07 M⁻¹ s⁻¹,–
B5,–,–,–,0.205 nM,0.0122 s⁻¹,–,5.97e+07 M⁻¹ s⁻¹
